From patent publication US20210380703A1 (RIGEL PHARMACEUTICALS, published 2021) come the findings set out here.

Residue numbers refer to the chain shown, from its start.

B1: 368_H10 (antibody, V domains shown)
VH: EVQLLESGGGLVQPGGSLRLSCAASGFTFSSYSMNWVRQAPGKGLEWVSSINYNSGYKGYADSVKGRFTISRDNSKNTLYLQMNSLRAEDTAVYYCARSATWHDTHLDYWGQGTLVTVSS
VL: DIQMTQSPSSLSASVGDRVTITCRASQSIVSYVNWYQQKPGKAPKLVIYAVTSLASGVPSRFSGSGSGTDFTLTISSLQPEDFATYYCQQSYETPLTFGGGTKVEIK
notes: VH and VL only
B2: 376_C07 (antibody, V domains shown)
VH: B1 VH with S50G
VL: B1 VL with V30L, V47L, V51A, L54R, A55H, E93D, T94L
notes: VH and VL only
B3: 374_G12 (antibody, V domains shown)
VH: B1 VH with S30D, S31D, S33G, S55G, G59S
VL: B1 VL with V30L, S31T, V51A, E93N, T94S
notes: VH and VL only
B4: 376_G11 (antibody, V domains shown)
VH: B1 VH with S50G, G59S
VL: B1 VL with S31T, V51A, E93N, T94L
notes: VH and VL only
B5: 376_G01 (antibody, V domains shown)
VH: B1 VH with S30D, S31D, S50G, G59S
VL: B1 VL with V30L, L54R, T94L
notes: VH and VL only
B6: 374_E03 (antibody, V domains shown)
VH: B1 VH with S50N
VL: B1 VL with V30L, S31T, V51A, E93D
notes: VH and VL only
B7: 375_B10 (antibody, V domains shown)
VH: B1 VH with S30D, S50G, K58T, G59S
VL: B1 VL with V30L, V33L, V47L, V51A, L54R, A55H, E93D, T94L
notes: VH and VL only
B8: 376_H08 (antibody, V domains shown)
VH: B1 VH with S30D, S33G, S50N, S55G
VL: B1 VL with V30L, S31T, V33L, V47L, V51A, L54R, A55H, Y92D, E93S, T94L
notes: VH and VL only
B9: 374_D11 (antibody, V domains shown)
VH: B1 VH with S30D, S33G, S50N, K58T
VL: B1 VL with V30L, S31T, V33L, V47L, V51A, L54R
notes: VH and VL only
B10: 376_E09 (antibody, V domains shown)
VH: B1 VH with S30D, S50G, G59S
VL: B1 VL with V30L, S31T, V33L, V47L, V51A, L54R, A55H, E93D
notes: VH and VL only
B11: 374_G01 (antibody, V domains shown)
VH: B1 VH with S30D, S50N, K58T, G59S
VL: B1 VL with V30L, S31T, V47L, V51T, L54R, A55H, E93N, T94L
notes: VH and VL only
B12: 374_E04 (antibody, V domains shown)
VH: B1 VH with S50G, G59S
VL: B1 VL with V30L, V33L, V47L, L54R, E93N, T94N
notes: VH and VL only
B13: 375_G10 (antibody, V domains shown)
VH: B1 VH with S33G, S55G, G59S
VL: B1 VL with S31T, V33L, V51A, L54R, A55H, E93D
notes: VH and VL only
B14: 375_G12 (antibody, V domains shown)
VH: B1 VH with S30D, S33G, N35H, S55G, K58T, G59S
VL: B1 VL with V47L, V51A, L54R, A55H, E93D
notes: VH and VL only
B15: 374_F09 (antibody, V domains shown)
VH: B1 VH with S33G, K58T, G59S
VL: B1 VL with V30S, V47L, V51A, L54R, E93S
notes: VH and VL only
B16: 376_A01 (antibody, V domains shown)
VH: B1 VH with S30D, S33G, S50N, S55G, K58T
VL: B1 VL with V33L, V47L, V51A, L54R, E93S
notes: VH and VL only
B17: 374_E06 (antibody, V domains shown)
VH: B1 VH with S30D
VL: B1 VL with V30L, V33L, V47L, V51A, L54R, E93D, T94L
notes: VH and VL only
B18: 374_G02 (antibody, V domains shown)
VH: B1 VH with S30D, S50G, K58T, G59S
VL: B1 VL with V30L, S31T, V33L, V47L, V51A, T52S, A55Q, E93D
notes: VH and VL only
B19: 375_F01 (antibody, V domains shown)
VH: B1 VH with K58T
VL: B1 VL with V33L, V51A, L54R, E93D, T94N
notes: VH and VL only
B20: 374_A05 (antibody, V domains shown)
VH: B1 VH with S31D, S33G, S49A, S50N, S55G, S99G
VL: B1 VL with S31R, V33L, V51A, T94L
B21: 374_C03 (antibody, V domains shown)
VH: B1 VH with S30D, S50G, K58T, G59S, T101N, H106A
VL: B1 VL with V30L, S31T, V33L, V47L, V51A, L54R, E93D, T94S
B22: 365_E05 (antibody, V domains shown)
VH: B1 VH with S33G, N35H, S49A, S50G, S55G, K58T, G59S, T101N, H106A
VL: B1 VL with V47L, V51A, E93D, T94N
B23: 365_E07 (antibody, V domains shown)
VH: B1 VH with S30D, S33G, N35H, S50G, K58T, G59S, R98K, T101N
VL: B1 VL with V30L, V33L, V47L, V51A, L54R, E93D, T94N
B24: 368_D10 (antibody, V domains shown)
VH: B1 VH with S30D, S33G, S49A, S50G, K58T, G59S, H106A
VL: B1 VL with V30L, V33L, V51A, L54R, E93D, T94S
Wherever optical density is given: test concentration or dose not given here.

Sequence of mouse ACVR2A (P27038 20-135 limits assumed): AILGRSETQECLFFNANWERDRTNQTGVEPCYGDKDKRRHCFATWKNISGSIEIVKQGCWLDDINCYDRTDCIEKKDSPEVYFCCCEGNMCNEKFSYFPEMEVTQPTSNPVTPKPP
T1 sequence (P27037 20-135 limits assumed): as the sequence (P27038 20-135 limits assumed) above, with R20K, I73V counted along it

The first assay has as its target T1, human ACVR2A (human, UniProt P27037 20-135, limits assumed).
T1 construct: also called activin receptor, type II A
Put plainly: ELISA. Put shortly:
(§1)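 Binding signal was read by ELISA after ACVR2A-specific monoclonal antibodies were tested against human ACVR2A and mouse ACVR2A, with human Fc as the negative control.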
The molecule B1 displayed an optical density of 2.28 OD.
On to B2, for which the optical density worked out at 3.7 OD.
In turn, B3 came in with an optical density of 3.19 OD.
Still for that read-out and setting: in the case of B4 it was 3.65 OD; in that of B5, 3.34 OD.
In the case of B6, the optical density is 3.72 OD.
On the same count and under the same terms, in the case of B7 it was 3.65 OD; in that of B8, 3.31 OD; in that of B9, 3.64 OD.
Same read-out and setting: for B10 the value was 3.74 OD; for B11, 3.34 OD.
The same measure, in the same setting: for B12 the value was 3.74 OD; for B13, 3.48 OD.
The molecule B14 yielded an optical density of 3.36 OD.
For the molecule B15, the optical density came to 3.53 OD.
B16 displayed an optical density of 3.24 OD.
B17 came in with an optical density of 3.84 OD.
In turn, B18 displayed an optical density of 3.52 OD.
The same measure, in the same setting: for B19 the value was 3.16 OD.

For a further assay, the target named is mouse ACVR2A (mouse, UniProt P27038 20-135, limits assumed). Put plainly: ELISA. Put shortly:
as §1
Regarding B1, the optical density stood at 2.16 OD.
On the same count and under the same terms, for B2 the value was 3.71 OD.
For the molecule B3, the optical density stood at 3.21 OD.
B4 registered an optical density of 3.6 OD.
Still for that read-out and setting: in the case of B5 it was 3.66 OD; in that of B6, 3.79 OD; in that of B7, 3.74 OD.
Same read-out and setting: for B8 the value was 3.28 OD; for B9, 3.58 OD.
Same read-out and setting: for B10 the value was 3.76 OD; for B11, 3.6 OD.
Consider B12, for which the optical density was 3.72 OD.
As for B13, the optical density turned out to be 3.64 OD.
The same measure, in the same setting: for B14 the value was 3.29 OD.
Molecule B15 came in with an optical density of 3.62 OD.
The same measure, in the same setting: in the case of B16 it was 3.66 OD; in that of B17, 3.75 OD; in that of B18, 3.54 OD.
On the same count and under the same terms, for B19 the value was 3.46 OD.

The target in a further assay is ACVR2A on primary human myotubes (human, UniProt P27037 20-513). Briefly: cell-based or functional assay.
Sequence of ACVR2A on primary human myotubes (P27037 20-513): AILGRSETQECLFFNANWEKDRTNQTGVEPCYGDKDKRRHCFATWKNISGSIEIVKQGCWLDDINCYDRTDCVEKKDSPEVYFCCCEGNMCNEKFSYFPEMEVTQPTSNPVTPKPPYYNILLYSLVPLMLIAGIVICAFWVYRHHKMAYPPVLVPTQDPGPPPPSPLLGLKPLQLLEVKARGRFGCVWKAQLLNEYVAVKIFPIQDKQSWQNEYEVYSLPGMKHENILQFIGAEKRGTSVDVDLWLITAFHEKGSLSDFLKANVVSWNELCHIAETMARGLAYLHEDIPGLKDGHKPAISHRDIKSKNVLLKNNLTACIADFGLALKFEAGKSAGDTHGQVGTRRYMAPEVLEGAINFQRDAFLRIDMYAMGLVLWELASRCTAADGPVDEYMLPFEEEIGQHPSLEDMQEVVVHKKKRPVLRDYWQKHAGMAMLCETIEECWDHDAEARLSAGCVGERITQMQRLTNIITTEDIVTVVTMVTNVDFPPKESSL
In the case of B20, the “Phospho-SMAD3 Human Skeletal Muscle GDF8” value amounted to 0.0081.
The same measure, in the same setting: for B21 the value was 0.0094.
Still for that read-out and setting: for B22 the value was 0.244; for B23, 0.518.
With B24, the “Phospho-SMAD3 Human Skeletal Muscle GDF8” value was 0.0601.

A further assay has as its target T2, biotinylated goat anti-human kappa light chain.
T2 construct: Positive control of the ELISA
Put plainly: ELISA, positive control. Further: test concentration or dose not given here. In outline:
as §1
With B1, the optical density worked out at 3.36 OD.
Same read-out and setting: for B2 the value was 3.42 OD; for B3, 3.15 OD.
Turning to B4, the optical density stood at 3.54 OD.
Still for that read-out and setting: for B5 the value was 3.18 OD; for B6, 3.13 OD.
Still for that read-out and setting: in the case of B7 it was 3.14 OD.
On the same count and under the same terms, for B8 the value was 3.53 OD; for B9, 2.9 OD.
B10 gave an optical density of 3.48 OD.
Regarding B11, the optical density stood at 2.92 OD.
On the same count and under the same terms, in the case of B12 it was 3.19 OD; in that of B13, 3.3 OD; in that of B14, 3.3 OD.
Still for that read-out and setting: for B15 the value was 3.14 OD; for B16, 2.98 OD; for B17, 3.25 OD.
In turn, B18 yielded an optical density of 3.17 OD.
On the same count and under the same terms, in the case of B19 it was 2.96 OD.
